Data: patent US20200247856A1 (SHIRE HUMAN GENETIC THERAPIES, published 2020)

T1: Myostatin (R&D Systems, Catalogue number 788-G8-010/CF) (UniProt O14793 267-375)
T1 sequence (looked up): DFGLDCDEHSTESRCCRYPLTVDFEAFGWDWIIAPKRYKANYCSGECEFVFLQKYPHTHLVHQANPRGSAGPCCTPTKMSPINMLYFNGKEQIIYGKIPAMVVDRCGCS

T2: Activin A (R&D Systems, Catalog number 338-AC-050 CF) (UniProt P08476 311-426)
T2 sequence (looked up): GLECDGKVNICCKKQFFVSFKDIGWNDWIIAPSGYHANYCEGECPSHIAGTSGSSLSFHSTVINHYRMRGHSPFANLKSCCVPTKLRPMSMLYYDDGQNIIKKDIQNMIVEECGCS

B1: ActRIIB-Fc protein (R&D Systems, Catalogue number 339-RBB-100) (Fc fusion, UniProt Q13705 19-134, looked up, not shown: a dimerising Fc or GST)
chain: SGRGEAETRECIYYNANWELERTNQSGLERCEGEQDKRLHCYASWRNSSGTIELVKKGCWLDDFNCYDRQECVATEENPQVYFCCCEGNFCNERFTHLPEAGGPEVTYEPPPTAPT
B2: FS315K(76,81,82)E-mFc (Fc fusion, not shown: a dimerising Fc or GST)
chain: GNCWLRQAKNGRCQVLYKTELSKEECCSTGRLSTSWTEEDVNDNTLFKWMIFNGGAPNCIPCKETCENVDCGPGKECRMNEENKPRCVCAPDCSNITWKGPVCGLDGKTYRNECALLKARCKEQPELEVQYQGRCKKTCRDVFCPGSSTCVVDQTNNAYCVTCNRICPEPASSEQYLCGNDGVTYSSACHLRKATCLLGRSIGLAYEGKCIKAKSCEDIQCTGGKKCLWDFKVGRGRCSLCDELCPDSKSDEPVCASDNATYASECAMKEAACSSGVLLEVKHSGSCNSISEDTEEEEEDEDQDYSFPISSILEW

Legend:
[1] = molecular target: T1, Myostatin (R&D Systems, Catalogue …); assay: cell-based or functional assay
[2] = molecular target: T2, Activin A (R&D Systems, Catalog number …); assay: cell-based or functional assay

Binder	Myostatin IC50 (nM), luciferase gene reporter assay (Smad3, A204 cells) [1]	Activin A IC50 (nM), luciferase gene reporter assay (Smad3, A204 cells) [2]
B1	0.5 nM	0.5 nM
B2	0.7 nM	0.8 nM
